Four molecules from patent WO2006003179A2 (dated 2006) can be followed below.

In assay [1] the target is recombinant soluble KIR2DL3 (entire extracellular domain, produced in E. coli) (human) (UniProt P43628). Briefly: Biacore, immobilized KIR2DL3; second Ab GL183 injected after first Ab 1-4F1. On the technique in general: In SPR one partner is held on a chip, and binding of the other changes the refractive index at the surface.
Assay [2] shares this target. Briefly: Biacore, immobilized KIR2DL3; second Ab GL183 injected after first Ab 1-7F9.
Assay [3] has the same target. Briefly: Biacore, immobilized KIR2DL3; second Ab GL183 injected after first Ab 1-6F1.
The target is the same in assay [4]. Nature of the assay: Biacore, immobilized KIR2DL3; second Ab GL183 alone (field of first Ab 1-4F1).
For assay [5] the target is unchanged. Briefly: Biacore, immobilized KIR2DL3; second Ab GL183 alone (field of first Ab 1-7F9).
Assay [6] has the same target. Briefly: Biacore, immobilized KIR2DL3; second Ab GL183 alone (field of first Ab 1-6F1).
Assay [7] has the same target. Briefly: Biacore competition, immobilized KIR2DL3; first Ab gl183, competitor (second Ab) 1-4F1. Further details: concentration or dose not given beside the values.
Assay [8] shares this target. Nature of the assay: Biacore competition, immobilized KIR2DL3; first Ab gl183, competitor (second Ab) 1-6F1. Further details: concentration or dose not given beside the values.
For assay [9] the target is unchanged. Briefly: Biacore competition, immobilized KIR2DL3; first Ab gl183, competitor (second Ab) 1-7F9. Also on record: concentration or dose not given beside the values.
The target is the same in assay [10]. Nature of the assay: Biacore competition, immobilized KIR2DL3; first Ab gl183, competitor (second Ab) DF200. Also on record: concentration or dose not given beside the values.
Assay [11] has the same target. Briefly: Biacore competition, immobilized KIR2DL3; first Ab gl183, competitor (second Ab) Pan2D. Also on record: concentration or dose not given beside the values.
Assay [12] shares this target. Nature of the assay: Biacore, immobilized KIR2DL3; second Ab DF200 injected after first Ab 1-4F1.
For assay [13] the target is unchanged. Briefly: Biacore, immobilized KIR2DL3; second Ab DF200 injected after first Ab 1-7F9.
Assay [14] has the same target. Nature of the assay: Biacore, immobilized KIR2DL3; second Ab DF200 injected after first Ab 1-6F1.
Assay [15] has the same target. Briefly: Biacore, immobilized KIR2DL3; second Ab DF200 injected after first Ab 1-6F5.
Assay [16] has the same target. Briefly: Biacore, immobilized KIR2DL3; second Ab DF200 alone (field of first Ab 1-4F1).
Assay [17] shares this target. Nature of the assay: Biacore, immobilized KIR2DL3; second Ab DF200 alone (field of first Ab 1-7F9).
Assay [18] shares this target. Nature of the assay: Biacore, immobilized KIR2DL3; second Ab DF200 alone (field of first Ab 1-6F1).
The target is the same in assay [19]. Briefly: Biacore, immobilized KIR2DL3; second Ab DF200 alone (field of first Ab 1-6F5).
Assay [20] shares this target. Briefly: Biacore competition, immobilized KIR2DL3; first Ab DF200, competitor (second Ab) 1-4F1. Further details: concentration or dose not given beside the values.
The target is the same in assay [21]. Briefly: Biacore competition, immobilized KIR2DL3; first Ab DF200, competitor (second Ab) 1-6F1. Also on record: concentration or dose not given beside the values.
Assay [22] has the same target. Nature of the assay: Biacore competition, immobilized KIR2DL3; first Ab DF200, competitor (second Ab) 1-6F5. Further details: concentration or dose not given beside the values.
Assay [23] has the same target. Briefly: Biacore competition, immobilized KIR2DL3; first Ab DF200, competitor (second Ab) 1-7F9. Further details: concentration or dose not given beside the values.
Assay [24] shares this target. Nature of the assay: Biacore competition, immobilized KIR2DL3; first Ab DF200, competitor (second Ab) GL183. Also on record: concentration or dose not given beside the values.
Assay [25] shares this target. Nature of the assay: Biacore competition, immobilized KIR2DL3; first Ab DF200, competitor (second Ab) Pan2D. Further details: concentration or dose not given beside the values.
The target of assay [26] is recombinant soluble KIR2DL1 (entire extracellular domain, produced in E. coli) (human) (UniProt P43626). Briefly: Biacore SPR, KIR2DL1 immobilized on CM5, antibody as analyte (bivalent binding), Example 3.
Assay [27] deals with recombinant soluble KIR2DL3 (entire extracellular domain, produced in E. coli) (human) (UniProt P43628). Briefly: Biacore SPR, KIR2DL3 immobilized on CM5, antibody as analyte (bivalent binding), Example 3.
The target of assay [28] is T1, KIR2DS3 on transfected cells (human, UniProt Q14952 22-304).
T1 construct: whole, on cells
T1 sequence (Q14952 22-304): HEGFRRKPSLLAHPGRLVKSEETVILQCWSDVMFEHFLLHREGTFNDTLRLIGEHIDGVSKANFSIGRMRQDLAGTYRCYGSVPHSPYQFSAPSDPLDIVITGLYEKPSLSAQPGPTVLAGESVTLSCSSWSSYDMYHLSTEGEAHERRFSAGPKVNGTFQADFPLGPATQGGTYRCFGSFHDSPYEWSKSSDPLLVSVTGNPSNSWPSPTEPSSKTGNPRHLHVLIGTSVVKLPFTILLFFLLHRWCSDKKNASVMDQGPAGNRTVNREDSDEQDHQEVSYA
Nature of the assay: flow cytometry on cells transfected with KIR2DS3 (Figure 16).

Assay [29] deals with recombinant soluble KIR2DL3 (entire extracellular domain, produced in E. coli) (human) (UniProt P43628). Nature of the assay: Biacore, immobilized KIR2DL3; second Ab Pan2D injected after first Ab 1-4F1.
For assay [30] the target is unchanged. Nature of the assay: Biacore, immobilized KIR2DL3; second Ab Pan2D injected after first Ab 1-7F9.
Assay [31] has the same target. Briefly: Biacore, immobilized KIR2DL3; second Ab Pan2D injected after first Ab 1-6F1.
Assay [32] shares this target. Nature of the assay: Biacore, immobilized KIR2DL3; second Ab Pan2D alone (field of first Ab 1-4F1).
Assay [33] shares this target. Briefly: Biacore, immobilized KIR2DL3; second Ab Pan2D alone (field of first Ab 1-7F9).
Assay [34] has the same target. Briefly: Biacore, immobilized KIR2DL3; second Ab Pan2D alone (field of first Ab 1-6F1).
The target is the same in assay [35]. Nature of the assay: Biacore, immobilized KIR2DL3; second Ab Pan2D alone (field of first Ab 1-6F5).

As to GL183 (antibody), the results for the RU of second antibody after first antibody (RU2) in [1], in assay [2] and in assay [3] were 330 RU, 200 RU and 570 RU, respectively. Besides, the RU of second antibody alone (RU1) came out at 1240 RU in assay [4], 800 RU in assay [5] and 620 RU in assay [6]. For the same molecule, the % inhibition of second antibody binding in assay [7] was 75%; in [8] it was 18%; in assay [9], 76%; in assay [10] it was 8%; in assay [11], 40%.
Regarding murine monoclonal antibody DF200, the RU of second antibody after first antibody (RU2) in assay [12] came out at 210 RU; in [13], 450 RU; in assay [14], 760 RU; in assay [15], 760 RU. Also, the RU of second antibody alone (RU1) was determined as 1140 RU in [16], 770 RU in assay [17], 790 RU in assay [18] and 800 RU in assay [19]. The % inhibition of second antibody binding in assay [20] was 75%; in assay [21], 16%; in assay [22], 4%; in [23] it was 62%; in assay [24], 20%; in assay [25], 75%. Also, the Kd was 11 nM in assay [26] and 2 nM in [27].

B1: human monoclonal antibody 1-7F9 (antibody, human IgG4, kappa, V domains shown)
VH: QVQLVQSGAEVKKPGSSVKVSCKASGGTFSFYAISWVRQAPGQGLEWMGGFIPIFGAANYAQKFQGRVTITADESTSTAYMELSSLRSDDTAVYYCARIPSGSYYYDYDMDVWGQGTTVTVSS
VL: EIVLTQSPVTLSLSPGERATLSCRASQSVSSYLAWYQQKPGQAPRLLIYDASNRATGIPARFSGSGSGTDFTLTISSLEPEDFAVYYCQQRSNWMYTFGQGTKLEIKR
notes: also called HuKIR 1-7F9; mAb 1-7F9
Take B1: the binding result in assay [28] is recorded as “no binding (tested: 1 μg/ml)”.

B2: murine monoclonal antibody NKVSF1 (Pan2D) (antibody, V domains shown)
VH: EVQLQQSGTVLARPGASVKMSCKASGYTFTSYWMHWMKQRPGQGLEWIGTIYPGNSDTNYNQKFKGKAKLTAVTSTNTAYMELSSLTNEDSAVYYCSRPTTATRSSAMDYWGQGTSVTVSS
VL: QIVLTQSPASMSASLGERVTMTCTASSSVSSSYLYWYQQKPGSSPKLWIYSTSNLASGVPARFSGSGSGTSYSLTISSMEAEDAATYYCHQYHRSPPTFGGGTKLEIKR
notes: Mouse mAb, bought from Serotec, cat
On to B2, for which the binding result in assay [28] is given as “no binding (tested: 1 μg/ml)”. Moreover, the RU of second antibody after first antibody (RU2) in [29] was found to be 890 RU; in [30], 830 RU; in assay [31] it was 1090 RU. For the same molecule, the RU of second antibody alone (RU1) in assay [32] stood at 2400 RU; in assay [33], 870 RU; in [34], 990 RU; in assay [35], 990 RU.
